US20150337051A1 (MORPHOTEK, published 2015)
Positions count from the first letter of the chain named.

Legend:
Biotinylated TEM1-Fc = target: T1, Biotinylated TEM1-Fc (murine, UniProt Q9HCU0 18-687 (human entry), limits assumed, biotinylated (sites not given)); assay: Biacore SPR, biotinylated TEM1-Fc on streptavidin surface, antibody as analyte, 1:1 model
T1 construct: Ligand captured on the streptavidin sensor surface in the Biacore analysis; also called rTEM-1-Fc; not shown: Fc portion of a murine gamma heavy chain
T1 sequence (looked up): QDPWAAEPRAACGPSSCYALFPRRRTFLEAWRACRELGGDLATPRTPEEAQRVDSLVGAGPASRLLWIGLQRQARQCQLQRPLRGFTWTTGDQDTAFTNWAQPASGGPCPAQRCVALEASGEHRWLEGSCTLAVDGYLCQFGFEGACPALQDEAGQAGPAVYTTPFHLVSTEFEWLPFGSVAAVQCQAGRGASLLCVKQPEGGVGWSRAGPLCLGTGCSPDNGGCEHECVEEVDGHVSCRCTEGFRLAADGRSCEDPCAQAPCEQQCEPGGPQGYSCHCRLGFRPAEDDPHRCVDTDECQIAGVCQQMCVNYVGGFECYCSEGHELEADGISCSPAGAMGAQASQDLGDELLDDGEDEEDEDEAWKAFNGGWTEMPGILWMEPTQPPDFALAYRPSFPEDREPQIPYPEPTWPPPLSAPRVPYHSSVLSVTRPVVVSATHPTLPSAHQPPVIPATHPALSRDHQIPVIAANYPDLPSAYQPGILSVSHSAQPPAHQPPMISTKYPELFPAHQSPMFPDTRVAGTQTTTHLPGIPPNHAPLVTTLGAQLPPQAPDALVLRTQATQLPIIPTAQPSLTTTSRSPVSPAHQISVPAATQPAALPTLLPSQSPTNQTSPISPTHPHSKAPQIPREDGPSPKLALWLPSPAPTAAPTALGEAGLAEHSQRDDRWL
Protocol: Biacore analyses were also performed to determine the affinity of selected isolated TEM-1-specific rat antibodies. For these studies streptavidin-coated sensor surfaces were generated by injecting CAP reagent for 5 minutes at a flow rate of 2 μl/min. Biotinylated TEM1-Fc (10 μg/ml) was injected onto the streptavidin coated sensor surface for 20 sec (Fc2, RL=˜50 RU), 40 sec (Fc3, RL=˜100 RU), and 60 sec (Fc4, RL=˜150 RU) at a flow rate of 25 μl/minute. Rat anti-TEM-1 MAbs were injected for 300 seconds at 0.5 nM, 2 nM, 5 nM, 20 nM, and 50 nM concentrations and the dissociations were monitored for 30 minutes at a flow rate of 25 μl/minute. The sensor surface was regenerated by injecting a CAP kit regeneration solution for 120 sec at a flow rate of 25 μl/minute. The sensorgrams were analyzed using 1:1 binding model.

[1] = target: T2, TEM-1 in a native state on aortic smooth muscle cells (AoSMC) (UniProt Q9HCU0 18-757, limits assumed); assay: flow cytometry on AoSMC, 10 µg/mL antibody, FITC goat anti-rat secondary; cells only 2.5, secondary only 3.5
T2 construct: whole, on cells; also called tumor endothelial marker 1; endosialin
T2 sequence (looked up): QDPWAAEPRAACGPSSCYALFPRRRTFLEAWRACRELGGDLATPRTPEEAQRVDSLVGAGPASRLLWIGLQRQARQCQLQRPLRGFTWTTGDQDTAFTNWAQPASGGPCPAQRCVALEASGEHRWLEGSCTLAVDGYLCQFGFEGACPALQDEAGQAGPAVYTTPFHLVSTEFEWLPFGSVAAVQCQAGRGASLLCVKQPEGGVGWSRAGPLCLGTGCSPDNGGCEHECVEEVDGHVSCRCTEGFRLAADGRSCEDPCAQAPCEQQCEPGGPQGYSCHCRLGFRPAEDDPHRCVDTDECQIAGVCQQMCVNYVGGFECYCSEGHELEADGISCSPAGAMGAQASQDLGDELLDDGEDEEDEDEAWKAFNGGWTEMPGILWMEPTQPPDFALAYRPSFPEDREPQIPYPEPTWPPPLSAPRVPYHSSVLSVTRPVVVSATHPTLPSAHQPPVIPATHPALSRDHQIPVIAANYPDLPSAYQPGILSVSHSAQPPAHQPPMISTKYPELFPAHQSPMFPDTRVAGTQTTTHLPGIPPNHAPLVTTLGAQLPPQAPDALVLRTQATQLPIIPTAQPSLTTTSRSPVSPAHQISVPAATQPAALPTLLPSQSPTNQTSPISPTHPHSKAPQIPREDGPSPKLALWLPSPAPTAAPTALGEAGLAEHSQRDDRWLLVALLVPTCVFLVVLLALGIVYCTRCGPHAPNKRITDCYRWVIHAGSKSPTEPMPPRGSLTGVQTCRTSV
Protocol: FACS analyses were also performed using aortic smooth muscle cells (AoSMC) and HUVEC cells. Cells were harvested using cell dissociation buffer (Invitrogen, #13151-014), washed twice in PBS and re-suspended at 50,000 cells/100 μL FACS buffer (PBS+2% FBS) in a round bottom 96 well plate. Cells were incubated for 1 hour on ice with the described rat TEM-1-specific antibodies at a concentration of 10 μg/mL, washed and then incubated with FITC-conjugated goat-anti-rat secondary antibodies (dilution 1:100) (Southern Biotech). Prior to analysis, cells were labeled with 7-AAD (BD Biosciences) to allow for the exclusion of nonviable cells. Cells were analyzed on an EasyCyte Flow Cytometer (Guava Technologies). The data in Table 6 indicate that all of the tested antibodies bind TEM-1 in a native state.

B1: Antibody 15F8 (antibody, V domains shown)
VH: EVQLVESGGGLVQPGRSMKLSCSASGFTFRNYYMAWVRQAPTRGLEWVASTGTGGDFTYYRDSVKGRFTISRDTAENTLYLQMDSLRSEDTATYYCARAYGYFDYWGQGVKVTVSS
VL: DIVLTQSPTTLSVTPGETVSLSCRASHSVGTNLHWYQQKPNESPRLLIKYVSQSNSGIPSRFSASGSGTDFTLNIKNVEFNDVSSYFCQQTQSWPLTFGAGTKLEIK
notes: Rat monoclonal antibody from hybridoma, IgG2a/kappa; also called 15F8.G6.B4; ATCC PTA-12540
B1 gave a Kd (Biotinylated TEM1-Fc) of 0.222 pM, a koff (Biotinylated TEM1-Fc) of 1.65e-07 s⁻¹ and a kon (Biotinylated TEM1-Fc) of 742000 M⁻¹ s⁻¹. The “Geometric mean of resulting FACS plot” value [1] was 72.5.

B2: Antibody 9A5 (antibody, V domains shown)
VH: B1 VH with S23A, T53S, K111R
VL: B1 VL with P40T, Y50D, V51A, N55M, N81D, A100S
notes: Rat monoclonal antibody from hybridoma, IgG2a/kappa; also called 9A5.G12.B10.F8.F6; ATCC PTA-12542
B2 gave a Kd (Biotinylated TEM1-Fc) of 21.6 pM, a koff (Biotinylated TEM1-Fc) of 1.84e-05 s⁻¹ and a kon (Biotinylated TEM1-Fc) of 850000 M⁻¹ s⁻¹. For the same binder, the “Geometric mean of resulting FACS plot” value [1] was 89.9.

B3: Antibody 16D2 (antibody, V domains shown)
VH: B1 VH with T28I, R43K, N77S, R87K
VL: B1 VL with P40T, N77D, N81D, A100S
notes: Rat monoclonal antibody from hybridoma, IgG2a/kappa; also called 16D2.H12.E7.G9; ATCC PTA-12544
B3 showed a Kd (Biotinylated TEM1-Fc) of 0.0131 pM, a koff (Biotinylated TEM1-Fc) of 1.07e-08 s⁻¹ and a kon (Biotinylated TEM1-Fc) of 810000 M⁻¹ s⁻¹. The “Geometric mean of resulting FACS plot” value [1] was 98.

B4: Antibody 14G3 (antibody, V domains shown)
VH: EVQLVEFGGGLVQPGRSLKLSCAASGFTFSDYNLAWVRQAPKKGLEWVATISYNGSEIYYRDSVKGRFTISRDNAKNTLYLQMDSLRSEDTATYYCARHWREYYSSYSSYVMDAWGQGASVTVSS
VL: DIVMTQTPSSQAVSAGAKVTLSCKSSQSLLYNKNKKNYLAWYQQKPGQSPKLLIYWASTRESGVPDRFIGSGSGTDFTLTISSVQAEDLAIYYCQQYYTFPTFGAGTKLELK
notes: Rat monoclonal antibody from hybridoma, IgG2a/kappa; also called 14G3.H4.F11.H7; ATCC PTA-12539
B4 was tested, and the “Geometric mean of resulting FACS plot” value [1] was 94.2.

B5: Antibody 7H12 (antibody, V domains shown)
VH: EVQLVESGGGLVQPGRSMILSCAASGFTFSNFDMAWVRQAPKMGLEWVATITYDGSRTNYRDSVKGRFTISRDSAKNTLYLQMDSLTSEDTATYYCARHGSSYYWFFDFWGPGTMVTVSS
VL: ETVMTQSPTSMPTSIGERVTLNCKASQSVGINVDWYQQTPGQSPKLLIYTASNRHTGVPDRFAGSGSGRDFTLTISNVEAEDLVVYYCLQYGSLPFTFGAGTKLELK
notes: Rat monoclonal antibody from hybridoma, IgG1/kappa; also called 7H12.H5.E7; ATCC PTA-12545
B5 was tested, and the Kd (Biotinylated TEM1-Fc) was 0.0279 pM, the koff (Biotinylated TEM1-Fc) was 3.01e-08 s⁻¹ and the kon (Biotinylated TEM1-Fc) was 1.08e+06 M⁻¹ s⁻¹. The “Geometric mean of resulting FACS plot” value [1] was 59.9.

B6: Antibody 11D1 (antibody, V domains shown)
VH: EVQLVESDGGLVQPGRSLKLSCAASGFSFSDYYMAWVRQAPTKGLEWVATISYDGSGSYYRDSVKGRFTVSRDNAKTTLYLQMDSLRSEDTATYYCARGGGLDYWGQGVMVTVSS
VL: DNVLTQAPLAVSVTPGESASISCRSSKSLLSIEGINSLYWYLQKPGKSPQLLLFRMSNLASGVPDRFSGSGSETDFTLKISQVETEDVGVYYCAQFLEFPFTFGSGTKLEIK
notes: Rat monoclonal antibody from hybridoma, IgG2a/kappa; also called 11D1.G10.F8; ATCC PTA-12541
Work on B6 yielded a Kd (Biotinylated TEM1-Fc) of 240 pM, a koff (Biotinylated TEM1-Fc) of 9.57e-05 s⁻¹ and a kon (Biotinylated TEM1-Fc) of 400000 M⁻¹ s⁻¹. The “Geometric mean of resulting FACS plot” value [1] was 46.3.

B7: Antibody 15D10 (antibody, V domains shown)
VH: QVQLMESGPGLVQPSETLSLTCTVSGFSLTNYNIHWVRQPPGKGLEWMGLMWSGGNTDYNSALKSRLTISRDTSKNQVFLKMNSLQSEDTTTYYCARDSGYGEGRLDYWGQGVMVTVSS
VL: DIVLTQAPLSVSVTPGESASISCRSSKSLLGSKGINFLYWYLQKPGKSPQLLIYRMSNLASGVPDRFSGSGSETDFILKISKVETEDVGVYYCAQFLEYPNSFGAGTKLELK
notes: Rat monoclonal antibody from hybridoma, IgG2a/kappa; also called 15D10.G4.C12; ATCC PTA-12543
Work on B7 yielded a Kd (Biotinylated TEM1-Fc) of 106 pM, a koff (Biotinylated TEM1-Fc) of 0.000105 s⁻¹ and a kon (Biotinylated TEM1-Fc) of 993000 M⁻¹ s⁻¹. For the same binder, the “Geometric mean of resulting FACS plot” value [1] was 86.4.

B8: Antibody 7D3 (antibody, V domains shown)
VH: EVQLVESGGGLVQPKGSLKLSCAASGFDFKTYAMSWVRQAPGKGLDWIVTISTKGHNYATLYADSVKERFTISRDDSQSMVYLQMNNLKTEDTALYYCTVAGYNFDYWGQGVMVTVSS
VL: DVVLTQTPSILSATIGQSVSISCRSSQSLLDSDGNTYLYWFLQRPGQSPQRLIYLVSNLGSGVPNRFSGSGSGTDFTLKISGVEAGDLGVYYCMQATHAPFTFGSGTKLEIK
notes: Rat monoclonal antibody from hybridoma, IgG2a/kappa; also called 7D3.F5.E8.D8; ATCC PTA-12538
Binder B8 has a Kd (Biotinylated TEM1-Fc) of 2.03 pM, a koff (Biotinylated TEM1-Fc) of 1.34e-07 s⁻¹ and a kon (Biotinylated TEM1-Fc) of 65900 M⁻¹ s⁻¹. The “Geometric mean of resulting FACS plot” value [1] was 63.4.

B9: Antibody 9G5 (antibody, V domains shown)
VH: EVKLEESGGGLVQPGMSVKLSCATSGFTFSDYWMEWVRQAPGKGLEWVAEIRNKLNNYVTNYGKPVRGRFTISRDDSKSIVYLQVNSIRSEDTGIYYCTRIQRVITTGEYFDYWGQGVMVTVSS
VL: DIQMTQSPSLLSASEGDRVTLSCKASQNIYKYLNWYQQKLGEAPKLLIYNINNLQTGIPSRFSGSGSGTDFTLTISSLQPEDVATYYCYQYNSGRAFGGGTKLELK
notes: Rat monoclonal antibody from hybridoma, IgG1/kappa; also called 9G5.F2.C1.F4; anti-TEM-1 clone 9G5
With B9 the “Geometric mean of resulting FACS plot” value [1] was 57.4.

B10: Antibody 10H8 (antibody, V domains shown)
VH: QVQLKESGPGLVQPSQTLSLTCTVSGFSLTNYNIHWVRQPPGKGLEWMGAIWSGGSADYDSALKSRLSISRDTSKSQVFLKMDNLQTEDTAIYYCTRDQLGGWYFDFWGPGTKVTVSS
VL: DIVMTQTPSSQAVSAGEKVTMSCTSGQSLLYNENNKNYLAWYQLKPGQSPRLLIYWASTRESGVPDRFIGSGSGTYFTLTISSVQAEDLAVYYCQQYFRFPRTFGGGTKLELK
notes: Rat monoclonal antibody from hybridoma, IgG2a/kappa; also called 10H8.D7.E3; ATCC PTA-12546
For B10, the “Geometric mean of resulting FACS plot” value [1] was 52.7.
